Reference: PMC5063967, “EIN2-dependent regulation of acetylation of histone H3K14 and non-canonical histone H3K23 in ethylene signalling” (Nature Communications, 2016)

Biological target: T1, MBP-tagged EIN3 purified from E. coli (Arabidopsis, UniProt O24606 1-628)
T1 construct: also called ETHYLENE … 3; source: E. coli, purified
T1 sequence (looked up): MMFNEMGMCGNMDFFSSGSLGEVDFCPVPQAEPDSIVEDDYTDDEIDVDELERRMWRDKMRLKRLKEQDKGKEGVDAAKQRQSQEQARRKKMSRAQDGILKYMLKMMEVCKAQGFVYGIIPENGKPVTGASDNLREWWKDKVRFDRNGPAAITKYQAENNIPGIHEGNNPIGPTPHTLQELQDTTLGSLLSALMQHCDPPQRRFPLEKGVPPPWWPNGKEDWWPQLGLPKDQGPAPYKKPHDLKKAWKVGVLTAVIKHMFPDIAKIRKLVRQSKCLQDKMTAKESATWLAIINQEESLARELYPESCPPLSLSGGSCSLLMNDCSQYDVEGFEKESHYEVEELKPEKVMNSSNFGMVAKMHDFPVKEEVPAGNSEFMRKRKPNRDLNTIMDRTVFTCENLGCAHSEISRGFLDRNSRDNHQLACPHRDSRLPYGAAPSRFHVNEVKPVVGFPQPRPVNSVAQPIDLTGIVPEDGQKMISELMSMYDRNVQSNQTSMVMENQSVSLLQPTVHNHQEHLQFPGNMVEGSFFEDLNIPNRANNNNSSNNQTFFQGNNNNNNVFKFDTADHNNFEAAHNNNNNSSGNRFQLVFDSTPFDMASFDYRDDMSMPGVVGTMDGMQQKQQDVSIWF
Assay: pull-down; in vitro GST pull-down; GST-tagged ENAP1 and MBP-tagged EIN3 purified from E. coli
Details: both partners purified

B1: GST-ENAP1, full length, purified from E. coli (natural protein, Arabidopsis, UniProt Q8VZI9 1-249, looked up)
chain: METTPETQSKTHRLPAGREDWWSEDATATLIEAWGDRYVNLNRGNLRQNDWKEVADAVNSSHGNGRPKTDVQCKNRIDTLKKKYKTEKAKPLSNWCFFDRLDFLIGPVMKKSSGAVVKSALMNPNLNPTGSKSTGSSLDDDDDDDDDDEEDDDDAGDWGFVVRKHRKVEDVDSSEGSAFRELARSILKLGEAFERIEGKKQQMMIELEKQRMEVAKELELQRMNMLMEMQLELEKSKLGKRRAASGKKL
notes: ENAP1, encoded by at3g11100, Arabidopsis, full length; The methods of the pull-down name the fusion protein 'GST-CD3'; also called GST-labelled ENAP1; GST-tagged ENAP1; source: E. coli, purified (glutathione Sepharose 4B)
- binding result: binds
